From patent US20210221876A1

Tests used:
[1] = biological target: h12H4 heavy chain P52bG mutant; assay: competitive ELISA; row P52bG (heavy chain CDR2 mutant of h12H4); reference wt h12H4
[2] = biological target: h12H4 heavy chain Y52aF mutant; assay: competitive ELISA; row Y52aF (heavy chain CDR2 mutant of h12H4); reference wt h12H4
[3] = biological target: h12H4 light chain P95Gz mutant; assay: competitive ELISA; row P95Gz (light chain CDR3 mutant of h12H4); reference wt h12H4
h12H4 light chain P95Gz mutant, sequence (VH, as listed by the source, chain 1 of 2): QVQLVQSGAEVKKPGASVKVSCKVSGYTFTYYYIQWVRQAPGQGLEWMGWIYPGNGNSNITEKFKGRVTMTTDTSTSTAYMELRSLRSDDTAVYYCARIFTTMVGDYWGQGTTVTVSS
h12H4 light chain P95Gz mutant, sequence (VL, as listed by the source, chain 2 of 2): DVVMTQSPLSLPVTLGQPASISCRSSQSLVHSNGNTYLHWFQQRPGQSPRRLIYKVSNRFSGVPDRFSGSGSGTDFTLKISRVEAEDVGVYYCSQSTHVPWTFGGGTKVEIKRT

h12H4 heavy chain P52bG mutant, sequence (VH, as listed by the source limits assumed, chain 1 of 2): as the sequence (VH, as listed by the source, chain 1 of 2) above, with P53G counted along it
h12H4 heavy chain P52bG mutant, sequence (VL, as listed by the source limits assumed, chain 2 of 2): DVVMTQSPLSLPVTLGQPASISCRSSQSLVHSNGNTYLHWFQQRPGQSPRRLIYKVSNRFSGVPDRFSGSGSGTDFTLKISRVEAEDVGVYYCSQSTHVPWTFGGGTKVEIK
h12H4 heavy chain Y52aF mutant, sequence (VH, as listed by the source limits assumed, chain 1 of 2): as the sequence (VH, as listed by the source, chain 1 of 2) above, with Y52F counted along it
h12H4 heavy chain Y52aF mutant, sequence (VL, as listed by the source limits assumed, chain 2 of 2): as the sequence (VL, as listed by the source limits assumed, chain 2 of 2) above

## SVNVDKQPKYEYSL [peptide … (hCE3C peptide, without the N-terminal Cys)]
[1]
  IC50 ratio (mutant/wt) (ratio (mutant/wt)): 1
[2]
  IC50 ratio (mutant/wt) (ratio (mutant/wt)): 1.4
[3]
  IC50 ratio (mutant/wt) (ratio (mutant/wt)): 1.5
